According to publication PMC7308080, “The His-Gly motif of acid-sensing ion channels resides in a reentrant ‘loop’ implicated in gating and ion selectivity” (eLife, 2020):

Biological target: the molecule itself
Assay: cryo-EM structure; single-particle cryo-EM of purified cASIC1-SMA at ~1 mg/ml, pH adjusted to 7.0 with MES pH 6.0, TBS with 1 mM DTT; low pH desensitized state; C3 symmetry in the final refinement

B1: full-length chicken acid-sensing ion channel 1 (cASIC1) solubilized in styrene maleic acid copolymer (natural protein, Gallus gallus (chicken), UniProt Q1XA76 1-527, looked up)
chain: MMDLKVDEEEVDSGQPVSIQAFASSSTLHGISHIFSYERLSLKRVVWALCFMGSLALLALVCTNRIQYYFLYPHVTKLDEVAATRLTFPAVTFCNLNEFRFSRVTKNDLYHAGELLALLNNRYEIPDTQTADEKQLEILQDKANFRNFKPKPFNMLEFYDRAGHDIREMLLSCFFRGEQCSPEDFKVVFTRYGKCYTFNAGQDGKPRLITMKGGTGNGLEIMLDIQQDEYLPVWGETDETSFEAGIKVQIHSQDEPPLIDQLGFGVAPGFQTFVSCQEQRLIYLPPPWGDCKATTGDSEFYDTYSITACRIDCETRYLVENCNCRMVHMPGDAPYCTPEQYKECADPALDFLVEKDNEYCVCEMPCNVTRYGKELSMVKIPSKASAKYLAKKYNKSEQYIGENILVLDIFFEALNYETIEQKKAYEVAGLLGDIGGQMGLFIGASILTVLELFDYAYEVIKHRLCRRGKCRKNHKRNNTDKGVALSMDDVKRHNPCESLRGHPAGMTYAANILPHHPARGTFEDFTC
notes: the final models contain residues 17-462; Homotrimer in SMA copolymer with endogenous lipids; Expression is 'as previously described (Yoder et al., 2018a)'; also called cASIC1-SMA; SMA-cASIC1a
stoichiometry N: 3
